According to publication PMC10085699:

Legend:
Assay in all cases: EMSA
[1] = target: T1, SETX-HD-DE/AA (Homo sapiens, UniProt Q7Z333 1674-2677, D2181A;E2182A)
T1 sequence: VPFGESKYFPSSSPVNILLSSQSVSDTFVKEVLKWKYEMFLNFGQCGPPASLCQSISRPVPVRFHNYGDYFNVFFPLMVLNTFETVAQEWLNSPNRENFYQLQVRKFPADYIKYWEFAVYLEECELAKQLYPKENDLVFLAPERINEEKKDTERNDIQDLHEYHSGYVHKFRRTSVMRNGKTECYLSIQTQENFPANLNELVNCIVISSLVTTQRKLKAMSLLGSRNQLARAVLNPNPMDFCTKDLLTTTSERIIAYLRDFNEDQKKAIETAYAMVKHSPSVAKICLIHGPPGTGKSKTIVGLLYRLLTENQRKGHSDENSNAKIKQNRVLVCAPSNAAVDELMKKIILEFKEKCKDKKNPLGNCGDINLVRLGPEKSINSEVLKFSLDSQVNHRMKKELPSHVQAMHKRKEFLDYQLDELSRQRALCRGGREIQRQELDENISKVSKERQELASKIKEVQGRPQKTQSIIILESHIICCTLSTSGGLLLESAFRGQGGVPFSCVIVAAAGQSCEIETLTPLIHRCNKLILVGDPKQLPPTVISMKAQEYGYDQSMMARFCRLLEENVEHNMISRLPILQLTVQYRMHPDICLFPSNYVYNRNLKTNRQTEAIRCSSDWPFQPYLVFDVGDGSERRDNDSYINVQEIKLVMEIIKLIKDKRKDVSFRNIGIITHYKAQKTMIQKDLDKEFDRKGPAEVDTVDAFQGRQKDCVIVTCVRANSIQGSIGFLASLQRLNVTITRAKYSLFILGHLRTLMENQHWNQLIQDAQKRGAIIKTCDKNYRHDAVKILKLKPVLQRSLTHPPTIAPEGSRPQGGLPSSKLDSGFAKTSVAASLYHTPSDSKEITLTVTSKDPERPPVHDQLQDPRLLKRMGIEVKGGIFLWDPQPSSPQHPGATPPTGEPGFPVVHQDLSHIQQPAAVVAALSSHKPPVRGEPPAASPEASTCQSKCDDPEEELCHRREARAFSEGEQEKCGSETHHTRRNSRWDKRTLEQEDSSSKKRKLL

[2] = target: T2, Sen1-HD (UniProt Q00416 1095-1904)
T2 sequence: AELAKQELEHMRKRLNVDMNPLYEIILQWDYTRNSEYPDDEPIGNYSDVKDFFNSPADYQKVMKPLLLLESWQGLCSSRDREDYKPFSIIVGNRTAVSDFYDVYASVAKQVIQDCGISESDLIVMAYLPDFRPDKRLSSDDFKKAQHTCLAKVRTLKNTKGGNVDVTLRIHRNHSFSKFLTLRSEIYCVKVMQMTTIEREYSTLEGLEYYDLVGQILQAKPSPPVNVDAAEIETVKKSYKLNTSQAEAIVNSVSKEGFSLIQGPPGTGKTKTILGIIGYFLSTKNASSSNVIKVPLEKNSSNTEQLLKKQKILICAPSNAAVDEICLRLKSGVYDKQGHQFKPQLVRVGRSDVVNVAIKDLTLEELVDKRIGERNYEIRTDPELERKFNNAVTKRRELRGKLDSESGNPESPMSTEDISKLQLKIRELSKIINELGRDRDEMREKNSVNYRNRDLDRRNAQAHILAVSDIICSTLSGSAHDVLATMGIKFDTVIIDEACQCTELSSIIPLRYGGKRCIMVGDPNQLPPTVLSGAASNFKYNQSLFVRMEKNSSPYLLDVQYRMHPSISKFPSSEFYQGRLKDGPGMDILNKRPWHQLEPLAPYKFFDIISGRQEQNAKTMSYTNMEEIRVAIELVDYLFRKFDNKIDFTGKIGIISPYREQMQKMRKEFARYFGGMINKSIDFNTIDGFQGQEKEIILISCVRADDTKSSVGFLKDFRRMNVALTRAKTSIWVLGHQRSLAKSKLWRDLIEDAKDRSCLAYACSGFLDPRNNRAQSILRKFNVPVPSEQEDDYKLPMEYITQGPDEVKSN

[3] = target: T3, SETX-HD-R/H (Homo sapiens, UniProt Q7Z333 1674-2677, R2136H)
T3 sequence: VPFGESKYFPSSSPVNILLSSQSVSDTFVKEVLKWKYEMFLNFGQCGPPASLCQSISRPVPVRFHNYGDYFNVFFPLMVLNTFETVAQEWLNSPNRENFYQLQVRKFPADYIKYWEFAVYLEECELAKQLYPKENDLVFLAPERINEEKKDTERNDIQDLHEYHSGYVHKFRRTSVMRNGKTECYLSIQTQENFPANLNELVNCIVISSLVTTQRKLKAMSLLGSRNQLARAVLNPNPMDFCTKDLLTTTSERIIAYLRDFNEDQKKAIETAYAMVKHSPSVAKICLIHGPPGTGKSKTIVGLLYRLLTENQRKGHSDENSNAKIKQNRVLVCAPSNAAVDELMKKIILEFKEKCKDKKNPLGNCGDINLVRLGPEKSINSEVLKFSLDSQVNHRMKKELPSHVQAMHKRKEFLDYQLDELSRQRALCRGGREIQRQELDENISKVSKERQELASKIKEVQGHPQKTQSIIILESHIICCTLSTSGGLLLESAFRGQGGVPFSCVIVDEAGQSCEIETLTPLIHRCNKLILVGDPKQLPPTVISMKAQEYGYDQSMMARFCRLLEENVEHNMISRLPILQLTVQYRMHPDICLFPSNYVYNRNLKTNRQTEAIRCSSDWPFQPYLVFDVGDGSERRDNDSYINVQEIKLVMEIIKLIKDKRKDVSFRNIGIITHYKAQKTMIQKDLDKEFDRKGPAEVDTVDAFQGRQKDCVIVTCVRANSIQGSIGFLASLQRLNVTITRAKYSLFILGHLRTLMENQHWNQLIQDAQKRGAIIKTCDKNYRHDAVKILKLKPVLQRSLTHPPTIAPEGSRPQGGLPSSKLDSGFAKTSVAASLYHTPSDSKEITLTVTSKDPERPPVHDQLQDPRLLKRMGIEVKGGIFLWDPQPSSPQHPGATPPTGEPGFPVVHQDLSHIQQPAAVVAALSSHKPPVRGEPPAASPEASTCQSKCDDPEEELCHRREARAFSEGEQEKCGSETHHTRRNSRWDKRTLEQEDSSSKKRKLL

Measured: binding result

B1: ssDNA pRMS679 (61 nt) (ssDNA)
DNA: TTGTCTTCTCATAAATTTAATCCCCGTACGCTTATACTCCTTTAACTACCCAGTCTTCCCG
binds: all assays above
